Measurements from patent publication WO2004044204A2 (dated 2004).

B1: VHH ALZ L35 (VHH)
VHH: EVQLQASGGGLVQAGGSLRLSCAASGSTFSINVIGWYRQAPGKQRELVAGISRSGNTNYADSVEGRFTISRDYAKNTVYLQMNSLKPEDTAVYYCHSKTYLLHMYWGQGTQVTVSS
notes: Alpaca VHH, produced soluble in E. coli HB2151 from pHEN-1 and tested as culture supernatant; It was detected with anti-c-myc 9E10; also called VHH-L35; VHH L35
B2: VHH ALZ L1-3 (VHH)
VHH: EVQLQASGGGLVQAGGSLRLSCSASASTTFSMNTMAWHRQAPGKQRSLVALIGATHSINYEDSVKGRFTISRDNAKNTVYLQMSSLKPEDTAVYYCNDWYWQMKGGSWGQGTQVTVSS
notes: Alpaca VHH, produced soluble in E. coli HB2151 from pHEN-1 and tested as culture supernatant; It was detected with anti-c-myc 9E10; also called VHH ALZ Ll-3; VHH-L1-3
B3: VHH ALZ V31-1 (VHH)
VHH: EVQLQASGGGSVQPGGSLRLSCAASGFIFGWSTMSWVRQAPGKGLEWVSTISGGGSATTYTDSVKGRFTISRDRAKNTLYLQMNSLKPEDTAIYYCNADVSTGFRYQRKDYWGRGTQVTVSS
notes: Alpaca VHH, produced soluble in E. coli HB2151 from pHEN-1; It was detected with anti-c-myc 9E10; also called VHH-V31-1; VHH V31-1

Experiments:
[1] = target: T1, β-amyloid peptide 1-42; experiment: competition ELISA
T1 construct: Synthesised on solid phase; It was coated on plates or used in solution; one result is told for its fibrillar form; also called Aβ42; peptide Aβ42

[2] = target: T1, β-amyloid peptide 1-42; experiment: ELISA with overlapping peptides that are fragments of Aβ42; the affinity is told for the carboxy terminal part

Row | Binder | Kd [1] | Kd [2]
1 | B1 | 30 nM | –
2 | B2 | 60 nM | –
3 | B3 | – | ~10 nM
